T1: AfGcHK (Anaeromyxobacter sp. Fw109-5, UniProt A7HD43)
T1 construct: gene gchK; full-length, C-terminal His6 tag kept, pET-21c in E. coli BL21(DE3); reconstituted with heme or cobalt protoporphyrin IX
T1 sequence (A7HD43 1-382): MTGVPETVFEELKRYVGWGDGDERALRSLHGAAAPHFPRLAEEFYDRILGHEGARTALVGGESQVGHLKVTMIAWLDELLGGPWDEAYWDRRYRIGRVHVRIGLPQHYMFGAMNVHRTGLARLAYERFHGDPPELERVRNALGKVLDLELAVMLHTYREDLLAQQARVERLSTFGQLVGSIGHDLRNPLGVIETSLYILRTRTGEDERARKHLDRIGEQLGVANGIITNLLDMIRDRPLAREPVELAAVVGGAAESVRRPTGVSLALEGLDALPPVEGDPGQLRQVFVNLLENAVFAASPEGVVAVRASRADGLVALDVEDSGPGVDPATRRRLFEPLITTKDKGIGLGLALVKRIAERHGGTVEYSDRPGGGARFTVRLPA

B1: Fe-AfGcHK, globin-coupled histidine kinase from Anaeromyxobacter sp. Fw109-5 reconstituted with heme (iron protoporphyrin IX) (enzyme, UniProt A7HD43 1-382, looked up)
chain: MTGVPETVFEELKRYVGWGDGDERALRSLHGAAAPHFPRLAEEFYDRILGHEGARTALVGGESQVGHLKVTMIAWLDELLGGPWDEAYWDRRYRIGRVHVRIGLPQHYMFGAMNVHRTGLARLAYERFHGDPPELERVRNALGKVLDLELAVMLHTYREDLLAQQARVERLSTFGQLVGSIGHDLRNPLGVIETSLYILRTRTGEDERARKHLDRIGEQLGVANGIITNLLDMIRDRPLAREPVELAAVVGGAAESVRRPTGVSLALEGLDALPPVEGDPGQLRQVFVNLLENAVFAASPEGVVAVRASRADGLVALDVEDSGPGVDPATRRRLFEPLITTKDKGIGLGLALVKRIAERHGGTVEYSDRPGGGARFTVRLPA
notes: AfGcHK, globin-coupled oxygen sensor histidine kinase from Anaeromyxobacter sp; Fw109-5; full-length protein with N-terminal globin sensor domain and C-terminal histidine kinase domain; predicted mass 43.0 kDa with the C-terminal His6 tag; Holds one equivalent of heme (iron protoporphyrin IX) per subunit; As purified, partially pre-autophosphorylated (about 10%, at His183); source: E. coli …
B2: Co-AfGcHK, cobalt-substituted AfGcHK (globin-coupled histidine kinase from Anaeromyxobacter sp. Fw109-5 reconstituted with cobalt protoporphyrin IX) (enzyme, UniProt A7HD43 1-382, looked up)
chain: MTGVPETVFEELKRYVGWGDGDERALRSLHGAAAPHFPRLAEEFYDRILGHEGARTALVGGESQVGHLKVTMIAWLDELLGGPWDEAYWDRRYRIGRVHVRIGLPQHYMFGAMNVHRTGLARLAYERFHGDPPELERVRNALGKVLDLELAVMLHTYREDLLAQQARVERLSTFGQLVGSIGHDLRNPLGVIETSLYILRTRTGEDERARKHLDRIGEQLGVANGIITNLLDMIRDRPLAREPVELAAVVGGAAESVRRPTGVSLALEGLDALPPVEGDPGQLRQVFVNLLENAVFAASPEGVVAVRASRADGLVALDVEDSGPGVDPATRRRLFEPLITTKDKGIGLGLALVKRIAERHGGTVEYSDRPGGGARFTVRLPA
notes: AfGcHK, globin-coupled oxygen sensor histidine kinase from Anaeromyxobacter sp; Fw109-5; full-length protein with N-terminal globin sensor domain and C-terminal histidine kinase domain; predicted mass 43.0 kDa with the C-terminal His6 tag; Same polypeptide and construct as m1; source: E. coli BL21(DE3), pET-21c; cobalt(III) protoporphyrin IX chloride added to the crude extract; purified (HisTrap …)

How the values were obtained:
AfGcHK = biological target: T1, AfGcHK; experiment: autophosphorylation, Phos-tag SDS-PAGE; format: biochemical; settings: Fe(III) and Fe(II)-O2 heme forms of Fe-AfGcHK; 1 mM ATP, 5 mM MgCl2, pH 8.0, 25 °C
[1] = biological target: the molecule itself; experiment: SEC; analytical gel filtration, Superdex 200 Increase 10/300 GL, 50 mM Tris-HCl pH 8.0, 100 mM NaCl; molecular weight estimated from elution volumes of standard proteins

| Molecule | autophosphorylation, Phos-tag SDS-PAGE (AfGcHK) | stoichiometry N [1] |
| --- | --- | --- |
| Nc1ncnc2c1ncn2[C@@H]1O[C@H](COP(=O)(O)OP(=O)(O)OP(=O)(O)O)[C@@H](O)[C@H]1O [ATP] | the Fe(III), and Fe(II)-O2 complexes of Fe-AfGcHK displayed autophosphorylation activity |  |
| B1 |  | 2 |
| B2 |  | 2 |

— publication PMC8697598 (ACS Omega, 2021)
